Publication PMC7515635 (2020)

B1: GST-ATG8A (natural protein)
chain: MAKSSFKISNPLEARMSESSRIREKYPDRIPVIVEKAGQSDVPDIDKKKYLVPADLTVGQFVYVVRKRIKLGAEKAIFVFVKNTLPPTAALMSAIYEEHKDEDGFLYMTYSGENTFG
B2: HIS6-AtC53 (natural protein)
chain: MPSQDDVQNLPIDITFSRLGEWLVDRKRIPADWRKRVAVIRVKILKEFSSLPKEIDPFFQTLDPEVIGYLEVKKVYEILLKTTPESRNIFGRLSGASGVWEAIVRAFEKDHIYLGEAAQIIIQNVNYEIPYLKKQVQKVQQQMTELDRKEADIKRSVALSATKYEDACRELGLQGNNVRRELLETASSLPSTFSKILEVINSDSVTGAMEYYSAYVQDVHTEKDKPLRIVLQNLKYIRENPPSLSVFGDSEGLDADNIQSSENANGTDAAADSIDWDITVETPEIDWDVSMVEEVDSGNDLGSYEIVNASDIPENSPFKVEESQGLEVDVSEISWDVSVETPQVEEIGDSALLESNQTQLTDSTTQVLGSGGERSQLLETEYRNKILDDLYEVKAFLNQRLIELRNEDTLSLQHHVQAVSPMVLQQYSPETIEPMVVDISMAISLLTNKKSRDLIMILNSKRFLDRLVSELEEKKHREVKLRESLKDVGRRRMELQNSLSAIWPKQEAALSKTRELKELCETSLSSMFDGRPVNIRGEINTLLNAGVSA
B3: GST-GABARAP (natural protein)
chain: MKFVYKEEHPFEKRRSEGEKIRKKYPDRVPVIVEKAPKARIGDLDKKKYLVPSDLTVGQFYFLIRKRIHLRAEDALFFFVNNVIPPTSATMGQLYQEHHEEDFFLYIAYSDESVYGL

What was measured:
[1] = target: AIM wt peptide; test: SPR
[2] = target: B1; test: SPR; derived from AIM wt peptide competition

Binder | Kd [1] [nM] | Kd [2] [nM]
B1 | 5880 | –
B2 | – | ~1390
B3 | 1640 | –
